Assay results: patent publication US20160223529

Protein	HCV protease activity (quenched fluorescent HCV substrate) (SH3^pep-EGFP-PDZ^pep)	TVMV protease activity (degradation of fluorogenic TVMV substrate peptide) (Calmodulin)
HCV-SH3^dom with C-terminal TVMV-inducible AI-domain (protein) SMSTSGSGGAEYVRALFDFNGNDEEDLPFKKGDILRIRDKPEEQWWNAEDSEGKRGMIPVPYVEKYRPASASVSALIGGRGGSGGSGGSGGSGGSGGSAKGSVVIVGRINLSGDTAYSQQTRGAAGIAATSATGRDKNQVDGEVQVLSTATQSFLATCVNGVCWTVYHGAGSKTLAGPKGPITQMYTNVDQDLVGWPAPPGARSMTPCTCGSSDLYLVTRHADVIPVRRRGDSRGSLLSPRPVSYLKGSSGGPLLCPSGHVVGIFRAAVCTRGVAKAVDFIPVESMETTMRGGGGSGGETVRFQSGGSGGDELILCPLDLGGSGGTGHHHHHH	resulting in reciprocal cleavage of the TVMV and HCV protease cleavage sites, thereby more fully activating both proteases	–
TVMV-PDZ^dom with C-terminal HCV-inducible AI-domain (protein) SGGSGGSMEIRVRVEKDPELGFSISGGVGGRGNPFRPDDDGIFVTRVQPEGPASKLLQPGDKIIQANGYSFINIEHGQAVSLLKTFQNTVELIIVREVSSGGRGGSGGSGGSGGSGGSGGSSKALLKGVRDFNPISACVCLLENSSDGHSERLFGIGFGPYIIANQHLFRRNNGELTIKTMHGEFKVKNSTQLQMKPVEGRDIIVIKMAKDFPPFPQKLKFRQPTIKDRVCMVSTNFQQKSVSSLVSESSHIVHKEDTSFWQHWITTKDGQCGSPLVSIIDGNILGIHSLTHTTNGSNYFVEFPEKFVATYLDAADGWCKNWKFNADKISWGSFILWEDAPESGGDEMEECASHLGSGREYVRFAPGSTHHHHHH	resulting in reciprocal cleavage of the TVMV and HCV protease cleavage sites, thereby more fully activating both proteases	–
TVMV-AI-CalmodulinBinder (protein) SKALLKGVRDFNPISACVCLLENSSDGHSERLFGIGFGPYIIANQHLFRRNNGELTIKTMHGEFKVKNSTQLQMKPVEGRDIIVIKMAKDFPPFPQKLKFRQPTIKDRVCMVSTNFQQKSVSSLVSESSHIVHKEDTSFWQHWITTKDGQCGSPLVSIIDGNILGIHSLTHTTNGSNYFVEFPEKFVATYLDAADGWCKNWKFNADKISWGSFILWEDAPEDFMSGLVPRGVGREYVRFAPRWKKNFIAVSAANRFKKISSSGAL	–	releasing inhibition of the TVMV protease by the autoinhibitor peptide
